Results taken from patent publication US20250340613A1 (JOINT STOCK COMPANY BIOCAD, published 2025).

T1: hAng2_H6F, Angiopoietin-2 (Homo sapiens) aa 19-496 (Homo sapiens, UniProt O15123 19-496)
T1 construct: also called hAng-H6F; not shown: His and FLAG tags implied by the name 'H6F'
T1 sequence: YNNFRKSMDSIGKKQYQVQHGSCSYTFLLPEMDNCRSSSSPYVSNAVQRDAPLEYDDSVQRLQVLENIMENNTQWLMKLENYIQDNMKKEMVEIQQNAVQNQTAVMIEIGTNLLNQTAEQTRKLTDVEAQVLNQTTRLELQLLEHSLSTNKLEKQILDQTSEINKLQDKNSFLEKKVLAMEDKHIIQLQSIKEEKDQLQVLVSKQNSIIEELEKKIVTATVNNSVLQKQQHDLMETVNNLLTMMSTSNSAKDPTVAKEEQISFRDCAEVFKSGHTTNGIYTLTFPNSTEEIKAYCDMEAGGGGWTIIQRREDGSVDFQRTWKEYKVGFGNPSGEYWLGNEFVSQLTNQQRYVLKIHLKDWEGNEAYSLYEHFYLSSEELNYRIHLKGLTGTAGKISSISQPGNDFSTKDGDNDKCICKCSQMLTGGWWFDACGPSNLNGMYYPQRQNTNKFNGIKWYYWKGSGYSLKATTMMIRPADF

T2: hCD38-Avi, ADP-ribosyl cyclase/cyclic ADP-ribose hydrolase 1 (Homo sapiens) aa 43-300 (Homo sapiens, UniProt P28907 43-300)
T2 construct: range 43-300; not shown: Avi tag as the name implies
T2 sequence (looked up): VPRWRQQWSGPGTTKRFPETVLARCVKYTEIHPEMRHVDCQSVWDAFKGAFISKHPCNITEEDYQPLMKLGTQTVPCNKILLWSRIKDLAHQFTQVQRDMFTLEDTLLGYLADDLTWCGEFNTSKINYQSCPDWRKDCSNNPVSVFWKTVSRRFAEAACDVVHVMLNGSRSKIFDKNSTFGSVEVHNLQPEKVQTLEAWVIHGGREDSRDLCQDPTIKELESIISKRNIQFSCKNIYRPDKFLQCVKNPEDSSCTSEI

T3: C-Avi-His-TEVs-HSA_hBCMA, Tumor necrosis factor receptor superfamily member 17 (Homo sapiens) aa 1-54 (Homo sapiens, UniProt Q02223 1-54)
T3 construct: range 1-54; not shown: Avi, His, TEV site and HSA parts as the name implies
T3 sequence (looked up): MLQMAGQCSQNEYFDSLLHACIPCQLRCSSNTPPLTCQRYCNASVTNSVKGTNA

T4: IL5R-His, Interleukin-5 receptor subunit alpha (Homo sapiens) aa 22-342 (Homo sapiens, UniProt Q01344 22-342)
T4 construct: not shown: His tag as the name implies
T4 sequence (looked up): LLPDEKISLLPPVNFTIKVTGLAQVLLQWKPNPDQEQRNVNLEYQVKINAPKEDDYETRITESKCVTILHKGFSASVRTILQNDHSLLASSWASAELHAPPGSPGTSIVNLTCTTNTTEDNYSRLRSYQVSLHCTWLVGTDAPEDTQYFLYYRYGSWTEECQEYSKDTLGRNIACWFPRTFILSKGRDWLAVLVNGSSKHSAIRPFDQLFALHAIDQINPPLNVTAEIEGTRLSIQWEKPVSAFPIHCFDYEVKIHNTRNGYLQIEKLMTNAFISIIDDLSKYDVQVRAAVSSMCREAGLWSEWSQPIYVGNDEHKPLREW


Columns and labels:
[1] = molecular target: T1, hAng2_H6F, Angiopoietin-2 (Homo …); experiment: BLI Octet RED 384; antibody on ProA sensor, antigen 30 ug/ml (510.2 nM); response at end of association
Experimental: (§1) Experimental study of nonspecific binding of bispecific chimeric antibodies to non-target antigens was performed on Forte Bio Octert RED 384. Protein A (ProA) biosensors (ForteBio) were immersed into a solution containing antibodies at a concentration of 10 μg/ml for 150 seconds to immobilize same. The baseline was recorded in a 1×KB solution for 30 seconds. The antibody-loaded sensors were then immersed into wells containing non-target antigens at a concentration of 30 μg/ml for 150 seconds. Complex dissociation was then recorded for 30 seconds.
(§2) The reference sensors went through all the steps as the sensors used to record analyte sensograms did, with the exception of the association step—at the association step, the sensors were immersed in a kinetic buffer solution without analyte (the reference sensor signals were measured in parallel with the recording of the main sensograms). The reference signal was subtracted from the signal received on sensors interacting with the analyte during the processing of sensograms.
(§3) Sensograms were processed using ForteBio Octet Data Analysisn 9.0 software. To report no non-specific interaction, the recorded signal level was checked at the end of the association step (the response parameter).

[2] = molecular target: T5, extracellular domain of the human CSF1R protein (hCSF1R_His) (Homo sapiens, UniProt P07333 20-512); experiment: BLI Octet RED 384; antibody on ProA sensor, antigen 30 ug/ml (522.5 nM); response at end of association
T5 construct: range 20-512; Molecular weight 57.4 kDa; made in CHO cells; also called hCSF1_His; not shown: C-terminal His and FLAG tags
Experimental: as §1, §2, §3

[3] = molecular target: T6, biotinylated peptide [NH2]…JQS[CH2CH2]biotin comprising a fragment of the human CD20 sequence (human, [NH2] at the N-terminus; [CH2CH2]biotin at the C-terminus; the letter J at position 20 is printed so and is not a standard residue code); experiment: BLI Octet RED 384; biotinylated peptide on SAX sensor, antibody in solution; 1:1 global fit
T6 construct: also called CD20 peptide
Experimental: In the case of the biotinylated CD20 peptide, the peptide at a concentration of 5 μg/ml was immobilized on the surface of SAX sensors (High Precision Streptavidin (SAX) biosensors, ForteBio) for 120 seconds. The baseline was recorded in a 1×KB solution for 120 seconds. The sensors containing the loaded peptide were immersed into wells containing the antibody solution (analyte) in 1×KB for 15 seconds. Measurements were carried out for solutions with analyte (antibodies in the case of CD20 peptide) at concentrations of 150 μg/ml, 75 μg/ml, 37.5 μg/ml. Complex dissociation was recorded in 1×KB for 120 seconds.
All measurements were carried out at 30° C., orbital mixing speed was 1,000 revolutions per minute.
To obtain numerical values of kinetic constants (kₒₙ is the on/association rate constant, kdis is the dissociation rate constant, KD is the equilibrium dissociation constant or affinity constant), the resulting sensograms were processed according to the 1:1 interaction model using Global Fit (selection of one set of kon, kdis, KD constants to analyze several sensograms of different concentrations) of the ForteBio Octet Data Analysis 9.0 software.

[4] = molecular target: T2, hCD38-Avi, ADP-ribosyl cyclase/cyclic …; experiment: BLI Octet RED 384; antibody on ProA sensor, antigen 30 ug/ml
[5] = molecular target: T3, C-Avi-His-TEVs-HSA_hBCMA, Tumor …; experiment: as above
[6] = molecular target: T4, IL5R-His, Interleukin-5 receptor …; experiment: as above

T5 sequence (P07333 20-512 limits assumed): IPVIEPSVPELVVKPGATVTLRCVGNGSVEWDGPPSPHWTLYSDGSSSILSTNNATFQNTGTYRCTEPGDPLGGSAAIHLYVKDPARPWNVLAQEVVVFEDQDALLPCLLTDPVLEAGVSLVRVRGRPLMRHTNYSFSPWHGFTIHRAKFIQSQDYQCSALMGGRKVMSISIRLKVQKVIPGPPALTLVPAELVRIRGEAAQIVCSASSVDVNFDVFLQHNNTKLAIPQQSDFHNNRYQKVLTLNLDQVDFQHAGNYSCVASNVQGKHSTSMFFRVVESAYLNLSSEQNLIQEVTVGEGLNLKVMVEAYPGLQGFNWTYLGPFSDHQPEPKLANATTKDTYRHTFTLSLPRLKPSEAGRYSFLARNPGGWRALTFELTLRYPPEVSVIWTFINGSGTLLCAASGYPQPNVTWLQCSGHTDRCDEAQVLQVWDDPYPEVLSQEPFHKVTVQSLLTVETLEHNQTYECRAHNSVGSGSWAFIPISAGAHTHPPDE
T6 sequence (peptide, as listed by the source): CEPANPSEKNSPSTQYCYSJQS

| Binder | Signal level (nm) [1] [nm] | Signal level (nm) [2] [nm] | Kd [3] [µM] | koff [3] [s⁻¹] | kon [3] [M⁻¹ s⁻¹] | binding result [4] | binding result [5] | binding result [6] |
| --- | --- | --- | --- | --- | --- | --- | --- | --- |
| 02-005, bivalent bispecific chimeric antibody that specifically binds to PD1 and CD20 (bispecific antibody, human IgG1, kappa, L234A L235A, Produced in CHO cells) heavy 1: EVQLVESGGGLVQPGGSLRLSCAASGYTFTSYNMHWVRQAPGKGLEWVGAIYPGNGDTSYNQKFKGRFTISVDKSKNTLYLQMNSLRAEDTAVYYCARVVYYSNSYWYFDVWGQGTLVTVSSASTKGPSVFPLAPSSKSTSGGTAALGCLVKDYFPEPVTVSWNSGALTSGVHTFPAVLQSSGLYSLSSVVTVPSSSLGTQTYICNVNHKPSNTKVDKRVEPKSCDKTHTCPPCPAPEAAGGPSVFLFPPKPKDTLYITREPEVTCVVVDVSHEDPEVKFNWYVDGVEVHNAKTKPREEQYNSTYRVVSVLTVLHQDWLNGKEYKCKVSNKALPAPIEKTISKAKGQPREPQVCTLPPSRDELTKNQVSLSCAVKGFYPSDIAVEWESNGQPENNYKTTPPVLDSDGSFFLVSKLTVDKSRWQQGNVFSCSVMHEALHNHYTQKSLSLSPGK light 1: DIQMTQSPSSLSASVGDRVTITCRASSSVSYMHWYQQKPGKAPKPLIYAPSNLASGVPSRFSGSGSGTDFTLTISSLQPEDFATYYCQQWSFNPPTFGQGTKVEIKRTVAAPSVFIFPPSDEQLKSGTASVVCLLNNFYPREAKVQWKVDNALQSGNSQESVTEQDSKDSTYSLSSTLTLSKADYEKHKVYACEVTHQGLSSPVTKSFNRGEC heavy 2: not shown light 2: QPVLTQPLSVSVALGQTARITCGGNNIGSKNVHWYQQKPGQAPVLVIYRDSNRPSGIPERFSGSNSGNTATLTISRAQAGDEADYYCQVWDSSTAVFGTGTKLTVLQQRQVKPEAWLSSGPSPGPGRLQLVCHVSGFYPKPVWVMWMRGEQEQQGTQLGDILPNANWTWYLRATLDVADGEAAGLSCRVKHSSLEGQDIILYWRGSC | -0.0194 | 0.0034 | 1.12 | 0.342 | 305000 | no binding (tested: 854.7 nM) | no binding (tested: 391.2 nM) | no binding (tested: 757.6 nM) |
| 02-007, bivalent bispecific chimeric antibody that specifically binds to PD1 and CSF1R (bispecific antibody, human IgG1, kappa, L234A L235A, Produced in CHO cells) heavy 1: QVQLVESGGGLVRPGGSLRLSCAASEFTFDDYAMSWVRQAPGKGLEWVSAISWNGGSTNYADSVKGRFTISRDNAKNSLYLQMNSLRAEDTALYYCASTVEVAHRRLYKYLEVWGQGTLVTVSSASTKGPSVFPLAPSSKSTSGGTAALGCLVKDYFPEPVTVSWNSGALTSGVHTFPAVLQSSGLYSLSSVVTVPSSSLGTQTYICNVNHKPSNTKVDKRVEPKSCDKTHTCPPCPAPEAAGGPSVFLFPPKPKDTLYITREPEVTCVVVDVSHEDPEVKFNWYVDGVEVHNAKTKPREEQYNSTYRVVSVLTVLHQDWLNGKEYKCKVSNKALPAPIEKTISKAKGQPREPQVCTLPPSRDELTKNQVSLSCAVKGFYPSDIAVEWESNGQPENNYKTTPPVLDSDGSFFLVSKLTVDKSRWQQGNVFSCSVMHEALHNHYTQKSLSLSPGK light 1: QAGLTQPPSVSVAPGQTARITCGGNNIGSKSVHWYQQKPGQAPVLVVYGDSDRPSGIPERFSGSNSGNTATLTISRVEAGDEADYYCQVWDISSDHVVFGGGTQLTVLRTVAAPSVFIFPPSDEQLKSGTASVVCLLNNFYPREAKVQWKVDNALQSGNSQESVTEQDSKDSTYSLSSTLTLSKADYEKHKVYACEVTHQGLSSPVTKSFNRGEC heavy 2: not shown light 2: QPVLTQPLSVSVALGQTARITCGGNNIGSKNVHWYQQKPGQAPVLVIYRDSNRPSGIPERFSGSNSGNTATLTISRAQAGDEADYYCQVWDSSTAVFGTGTKLTVLQQRQVKPEAWLSSGPSPGPGRLQLVCHVSGFYPKPVWVMWMRGEQEQQGTQLGDILPNANWTWYLRATLDVADGEAAGLSCRVKHSSLEGQDIILYWRGSC | -0.0079 | 0.537 | – | – | – | no binding (tested: 854.7 nM) | no binding (tested: 391.2 nM) | no binding (tested: 757.6 nM) |
| 02-004, bivalent bispecific chimeric antibody that specifically binds to PD1 and CD20 (bispecific antibody, human IgG1, kappa, L234A L235A, Produced in CHO cells) heavy 1: QVQLVQSGGGLVQPGGSLRLSCAASGFTFSSYWMYWVRQVPGKGLEWVSAIDTGGGRTYYADSVKGRFAISRVNAKNTMYLQMNSLRAEDTAVYYCARDEGGGTGWGVLKDWPYGLDAWGQGTLVTVSSASTKGPSVFPLAPSSKSTSGGTAALGCLVKDYFPEPVTVSWNSGALTSGVHTFPAVLQSSGLYSLSSVVTVPSSSLGTQTYICNVNHKPSNTKVDKRVEPKSCDKTHTCPPCPAPEAAGGPSVFLFPPKPKDTLYITREPEVTCVVVDVSHEDPEVKFNWYVDGVEVHNAKTKPREEQYNSTYRVVSVLTVLHQDWLNGKEYKCKVSNKALPAPIEKTISKAKGQPREPQVCTLPPSRDELTKNQVSLSCAVKGFYPSDIAVEWESNGQPENNYKTTPPVLDSDGSFFLVSKLTVDKSRWQQGNVFSCSVMHEALHNHYTQKSLSLSPGK light 1: QPVLTQPLSVSVALGQTARITCGGNNIGSKNVHWYQQKPGQAPVLVIYRDSNRPSGIPERFSGSNSGNTATLTISRAQAGDEADYYCQVWDSSTAVFGTGTKLTVLQRTVAAPSVFIFPPSDEQLKSGTASVVCLLNNFYPREAKVQWKVDNALQSGNSQESVTEQDSKDSTYSLSSTLTLSKADYEKHKVYACEVTHQGLSSPVTKSFNRGEC heavy 2: not shown light 2: DIQMTQSPSSLSASVGDRVTITCRASSSVSYMHWYQQKPGKAPKPLIYAPSNLASGVPSRFSGSGSGTDFTLTISSLQPEDFATYYCQQWSFNPPTFGQGTKVEIKQRQVKPEAWLSSGPSPGPGRLQLVCHVSGFYPKPVWVMWMRGEQEQQGTQLGDILPNANWTWYLRATLDVADGEAAGLSCRVKHSSLEGQDIILYWRGSC | 0.0212 | 0.0103 | 1.27 | 0.238 | 188000 | no binding (tested: 854.7 nM) | no binding (tested: 391.2 nM) | no binding (tested: 757.6 nM) |
